Data on eight molecules can be found in patent EP4566619A1 (AvenCell Therapeutics Inc., dated 2025).

Substitutions are numbered along the chain they refer to.

For assay [1], the target named is T1, CD19 (UniProt P15391 20-556).
T1 construct: whole, on cells; also called CD19 on OCI-AML3-CD19 cells; Oci-AML-CD19
T1 sequence (looked up): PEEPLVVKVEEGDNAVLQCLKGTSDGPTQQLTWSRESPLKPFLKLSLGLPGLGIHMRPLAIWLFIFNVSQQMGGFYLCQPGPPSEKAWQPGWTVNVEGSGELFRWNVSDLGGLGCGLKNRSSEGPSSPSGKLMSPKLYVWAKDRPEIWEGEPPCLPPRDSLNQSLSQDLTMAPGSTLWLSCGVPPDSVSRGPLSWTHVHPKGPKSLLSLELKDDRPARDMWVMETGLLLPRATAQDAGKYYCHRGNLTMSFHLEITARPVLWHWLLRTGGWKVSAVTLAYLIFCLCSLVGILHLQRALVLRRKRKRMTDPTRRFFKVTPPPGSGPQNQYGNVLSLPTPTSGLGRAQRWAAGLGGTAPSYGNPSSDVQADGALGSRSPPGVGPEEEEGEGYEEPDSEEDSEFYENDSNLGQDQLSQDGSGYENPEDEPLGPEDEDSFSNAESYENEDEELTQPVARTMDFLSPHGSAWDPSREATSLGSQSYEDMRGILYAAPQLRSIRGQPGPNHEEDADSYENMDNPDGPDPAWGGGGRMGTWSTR
Kind of assay: cellular binding assay, flow cytometry (gMFI) on OCI-AML3-CD19 cells. Background: Flow cytometry measures light scatter and fluorescence of single cells or particles in a stream.

For assay [2], the target named is T1, CD19. Kind of assay: cell-based or functional assay.
Assay [3] addresses T2, CD20 (UniProt P11836 1-297, limits assumed).
T2 sequence (looked up): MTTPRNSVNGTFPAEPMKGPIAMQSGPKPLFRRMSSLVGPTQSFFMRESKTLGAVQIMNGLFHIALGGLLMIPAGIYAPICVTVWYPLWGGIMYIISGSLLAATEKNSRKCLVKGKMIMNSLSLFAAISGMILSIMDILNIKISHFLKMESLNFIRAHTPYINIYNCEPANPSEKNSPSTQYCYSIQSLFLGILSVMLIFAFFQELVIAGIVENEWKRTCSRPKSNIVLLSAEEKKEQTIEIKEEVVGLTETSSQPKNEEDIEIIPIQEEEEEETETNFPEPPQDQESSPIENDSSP
Kind of assay: cell-based or functional assay.

The target in assay [4] is T2, CD20. As to the kind of experiment: cellular binding assay, flow cytometry (gMFI) on OCI-AML3-CD20 cells.

B1: R-TM-19/20_2 (other)
chain 1: not shown
chain 2: GQVQLVQSGAEVKKPGASVKVSCKASGYTFTHYYIYWVRQAPGQGLEWMGGVNPSNGGTHFNEKFKSRVTMTRDTSISTAYMELSRLRSDDTAVYYCARSEYDYGLGFAYWGQGTLVTVSSASTKGPSVFPLAPSSKSTSGGTAALGCLVKDYFPEPVTVSWNSGALTSGVHTFPAVLQSSGLYSLSSVVTVPSSSLGTQTYICNVNHKPSNTKVDKKVEPKSCDKTHTCPPCPAPPVAGPSVFLFPPKPKDTLMISRTPEVTCVVVDVSHEDPEVKFNWYVDGVEVHNAKTKPREEQYNSTYRVVSVLTVLHQDWLNGKEYKCKVSNKGLPSSIEKTISKAKGQPREPQVYTLPPSRDELTKNQVSLWCLVKGFYPSDIAVEWESNGQPENNYKTTPPVLDSDGSFFLYSKLTVDKSRWQQGNVFSCSVMHEALHNHYTQKSLSLSPGK
chain 3: GQVQLVESGGGLVQPGGSLRLSCAASGRTFSNYNMGWFRQAPGQGLEFVAAIDWSGGSPYYADSVKGRFTISRDNSKNTLYLQMNSLRAEDTAVYYCAAPLSYGSTWLADYWGQGTLVTVSSEPKSCDKTHTCPPCPAPPVAGPSVFLFPPKPKDTLMISRTPEVTCVVVDVSHEDPEVKFNWYVDGVEVHNAKTKPREEQYNSTYRVVSVLTVLHQDWLNGKEYKCKVSNKGLPSSIEKTISKAKGQPREPQVYTLPPSRDELTKNQVSLSCAVKGFYPSDIAVEWESNGQPENNYKTTPPVLDSDGSFFLVSKLTVDKSRWQQGNVFSCSVMHEALHNHYTQKSLSLSPGK
notes: also called R-TM 19/20_02
For B1, the half-maximal effective concentration (EC50) with CD19 [1] came to 18.4 nM; in the assay with CD20 [4] it was 43.6 nM. For the same molecule, in the assay with CD19 [2], the “CD19 killing EC50 [pM]” value was 3.8 pM. Moreover, the “CD20 killing EC50 [pM]” value in the assay with CD20 [3] was found to be 7.2 pM.

B2: R-TM-19/20_8 (other)
chain 1: not shown
chain 2: B1 chain 2
chain 3: GQVQLVESGGGLVQPGGSLRLSCAASGRTFSNYNMGWFRQAPGQGLEFVAAIDWSGGSPYYADSVKGRFTISRDNSKNTLYLQMNSLRAEDTAVYYCAAPLSYGSTWLADYWGQGTLVTVSSGGGGSGGGGSGGGGSEVQLVESGGGLVQPGGSLRLSCAASGFSFSDFWMSWVRQAPGKGLEWVATISQAGSEKDYVDSVKGRFTISRDNAKKSLYLQMNSLRAEDTAVYYCASGVYSFDYRGQGTLVTVSSEPKSCDKTHTCPPCPAPPVAGPSVFLFPPKPKDTLMISRTPEVTCVVVDVSHEDPEVKFNWYVDGVEVHNAKTKPREEQYNSTYRVVSVLTVLHQDWLNGKEYKCKVSNKGLPSSIEKTISKAKGQPREPQVYTLPPSRDELTKNQVSLSCAVKGFYPSDIAVEWESNGQPENNYKTTPPVLDSDGSFFLVSKLTVDKSRWQQGNVFSCSVMHEALHNHYTQKSLSLSPGK
notes: Three-chain CD19/CD20 targeting module; also called R-TM 19/20_08
Regarding B2, the EC50 came out at 14.8 nM in the assay with CD19 [1] and 37 nM with CD20 [4]. In addition, the “CD19 killing EC50 [pM]” value with CD19 [2] was determined as 7.1 pM. The “CD20 killing EC50 [pM]” value with CD20 [3] was 14.2 pM.

B3: R-TM-19/20_15 (other)
chain 1: not shown
chain 2: B1 chain 2
chain 3: GQVQLVESGGGLVQPGGSLRLSCAASGRTFSNYNMGWFRQAPGQGLEFVAAIDWSGGSPYYADSVKGRFTISRDNSKNTLYLQMNSLRAEDTAVYYCAAPLSYGSTWLADYWGQGTLVTVSSGGGGSGGGGSQVQLVESGGGLVQPGGSLRLSCAASGRTFSNYNMGWFRQAPGQGLEFVAAIDWSGGSPYYADSVKGRFTISRDNSKNTLYLQMNSLRAEDTAVYYCAAPLSYGSTWLADYWGQGTLVTVSSEPKSCDKTHTCPPCPAPPVAGPSVFLFPPKPKDTLMISRTPEVTCVVVDVSHEDPEVKFNWYVDGVEVHNAKTKPREEQYNSTYRVVSVLTVLHQDWLNGKEYKCKVSNKGLPSSIEKTISKAKGQPREPQVYTLPPSRDELTKNQVSLSCAVKGFYPSDIAVEWESNGQPENNYKTTPPVLDSDGSFFLVSKLTVDKSRWQQGNVFSCSVMHEALHNHYTQKSLSLSPGK
notes: Three-chain CD19/CD20 targeting module
With B3, the EC50 with CD19 [1] was determined as 3.7 nM; with CD20 [4], 45.5 nM. For the same molecule, the “CD19 killing EC50 [pM]” value with CD19 [2] came to 1.2 pM. Moreover, the “CD20 killing EC50 [pM]” value with CD20 [3] amounted to 10.7 pM.

B4: R-TM-19/20_21 (other)
chain 1: not shown
chain 2: B1 chain 2
chain 3: B1 chain 3
notes: as for B3
In the case of B4, the half-maximal effective concentration (EC50) came to 2.2 nM with CD19 [1] and 53.8 nM with CD20 [4]. In addition, the “CD19 killing EC50 [pM]” value with CD19 [2] was 1.4 pM. For the same molecule, the “CD20 killing EC50 [pM]” value with CD20 [3] came to 12.6 pM.

B5: R-TM-19/20_11 (other)
chain 1: not shown
chain 2: B1 chain 2
chain 3: EVQLVESGGGLVQPGGSLRLSCAASGFSFSDFWMSWVRQAPGKGLEWVATISQAGSEKDYVDSVKGRFTISRDNAKKSLYLQMNSLRAEDTAVYYCASGVYSFDYRGQGTLVTVSSEPKSCDKTHTCPPCPAPPVAGPSVFLFPPKPKDTLMISRTPEVTCVVVDVSHEDPEVKFNWYVDGVEVHNAKTKPREEQYNSTYRVVSVLTVLHQDWLNGKEYKCKVSNKGLPSSIEKTISKAKGQPREPQVYTLPPSRDELTKNQVSLSCAVKGFYPSDIAVEWESNGQPENNYKTTPPVLDSDGSFFLVSKLTVDKSRWQQGNVFSCSVMHEALHNHYTQKSLSLSPGKGGGGSGGGGSGGGGSQVQLVESGGGLVQPGGSLRLSCAASGRTFSNYNMGWFRQAPGQGLEFVAAIDWSGGSPYYADSVKGRFTISRDNSKNTLYLQMNSLRAEDTAVYYCAAPLSYGSTWLADYWGQGTLVTVSS
notes: as for B3
For the molecule B5, the EC50 was 5.2 nM in the assay with CD19 [1] and 62 nM in the assay with CD20 [4]. The “CD19 killing EC50 [pM]” value with CD19 [2] was found to be 3.8 pM. Besides, the “CD20 killing EC50 [pM]” value with CD20 [3] turned out to be 17.9 pM.

B6: R-TM-19/20_5 (other)
chain 1: not shown
chain 2: B1 chain 2
chain 3: B3 chain 3
notes: Three-chain CD19/CD20 targeting module; also called R-TM 19/20_05
Turning to B6, the concentration for a half-maximal effect (EC50) came out at 14.7 nM with CD19 [1] and 24.1 nM with CD20 [4]. Besides, in the assay with CD19 [2], the “CD19 killing EC50 [pM]” value was determined as 6.2 pM. For the same molecule, the “CD20 killing EC50 [pM]” value in the assay with CD20 [3] came out at 9.8 pM.

B7: R-TM-19/20_3 (other)
chain 1: not shown
chain 2: B1 chain 2
chain 3: B1 chain 3 with D63A, K66R
notes: Three-chain CD19/CD20 targeting module; also called R-TM 19/20_03
Consider B7, for which the concentration for a half-maximal effect (EC50) in the assay with CD19 [1] was 19 nM; with CD20 [4] it was 29.2 nM. Moreover, in the assay with CD19 [2], the “CD19 killing EC50 [pM]” value stood at 7.9 pM. Besides, the “CD20 killing EC50 [pM]” value with CD20 [3] was determined as 4.3 pM.

B8: R-TM-19/20_23 (other)
chain 1: not shown
chain 2: B1 chain 2
chain 3: B1 chain 3 with D63A, K66R
notes: as for B3
As for B8, the concentration giving a half-maximal response (EC50) with CD19 [1] came to 3.4 nM; with CD20 [4], 23 nM. Besides, the “CD19 killing EC50 [pM]” value with CD19 [2] was determined as 1 pM. In addition, the “CD20 killing EC50 [pM]” value with CD20 [3] was determined as 2.1 pM.

As a reminder, the EC50 is the concentration giving half of the maximal effect. Low values mean greater potency, high ones weaker potency.
